The results in this text go back to US20250002565A1.

The target in the test is recombinant HIV gp41 (HIV). Put plainly: ELISA against recombinant gp41 (in PBS).

B1: recombinant class switched IgA2 antibody (antibody, V domains shown)
VH: QVQLVESGGGVVQPGRSLRLSCAASGFTFSSYAIHWVRQAPGKGLEWVAVISYDGSNRYYADSVKGRFTISRDNSKNTLYLQMNSLRPEDTAVYYCARDRFSAVASTPTYHNYFYMDVWGKGTTVTVSS
On to B1, for which the EC50 – broadly, the concentration that produces a half-maximal response – amounted to 1.29 µg/mL.
